From the Human Domainome abundance scans (Beltran et al. 2025)
± gives the uncertainty stated by the source.

B1: POU domain, class 3, transcription factor 1, residues 247 to 324; numbered along this chain, Q03052 (parent)
chain: EDAPSSDDLEQFAKQFKQRRIKLGFTQADVGLALGTLYGNVFSQTTICRFEALQLSFKNMCKLKPLLNKWLEETDSSS
B2: Cytoplasmic polyadenylation element-binding protein 2, residues 513 to 575; numbered along this chain, Q7Z5Q1 (parent)
chain: KRVEVKPYVLDDQMCDECQGARCGGKFAPFFCANVTCLQYYCEFCWANIHSRAGREFHKPLVK

Variants of: B1
Test: abundance fitness (aPCA) (normalised: wild type 0, dead -1); higher = more abundant; growth selection in yeast, the domain comes from the species named
Conditions: Homo sapiens
Work on T45C yielded an abundance fitness of -0.346 ± 0.1.
Work on F16P yielded an abundance fitness of -0.789 ± 0.23.
F50I gave an abundance fitness of -0.556 ± 0.26.
L55D showed an abundance fitness of -0.479 ± 0.17.
Variant M60L has an abundance fitness of -0.256 ± 0.086.
Work on Y38P yielded an abundance fitness of -0.44 ± 0.13.
Work on F25K yielded an abundance fitness of -0.095 ± 0.094.
For K22N, the abundance fitness was 0.126 ± 0.12.
For D29N, the abundance fitness was -0.729 ± 0.39.
Variant D75V has an abundance fitness of -0.115 ± 0.069.
Work on L67A yielded an abundance fitness of -0.562 ± 0.1.
Variant K14E has an abundance fitness of -0.053 ± 0.077.
In the case of S77M, the abundance fitness is reported as -0.029 ± 0.065.
T74C gave an abundance fitness of -0.009 ± 0.11.
F50E showed an abundance fitness of -0.299 ± 0.092.
In the case of S78V, the abundance fitness is reported as 0.021 ± 0.079.
With N40R the abundance fitness was 0.07 ± 0.046.
E1F gave an abundance fitness of 0.118 ± 0.3.
In the case of S77C, the abundance fitness is reported as -0.165 ± 0.075.
For S56M, the abundance fitness was -0.818 ± 0.19.
Variant C48W has an abundance fitness of -0.37 ± 0.082.
T26Q showed an abundance fitness of -0.192 ± 0.27.
With Q27H the abundance fitness was 0.217 ± 0.12.
Work on Q44C yielded an abundance fitness of -0.515 ± 0.12.
Q11C showed an abundance fitness of -0.266 ± 0.15.
Variant T74Q has an abundance fitness of 0.089 ± 0.086.
T45A gave an abundance fitness of -0.023 ± 0.051.
Work on A28N yielded an abundance fitness of -0.285 ± 0.35.
N59M gave an abundance fitness of 0.04 ± 0.064.
With G39R the abundance fitness was -0.198 ± 0.057.
Variant T26H has an abundance fitness of -0.15 ± 0.23.
Work on D2L yielded an abundance fitness of 0.151 ± 0.066.
With F12E the abundance fitness was -0.738 ± 0.31.
For E51K, the abundance fitness was -0.414 ± 0.14.
Variant A33L has an abundance fitness of 0.003 ± 0.067.
Variant R20P has an abundance fitness of -0.744 ± 0.24.
With K22V the abundance fitness was -0.428 ± 0.094.
For G24N, the abundance fitness was -0.587 ± 0.22.
Work on P4W yielded an abundance fitness of 0.066 ± 0.062.
In the case of L53W, the abundance fitness is reported as -0.478 ± 0.076.
Work on L34V yielded an abundance fitness of -0.464 ± 0.089.
Work on S5W yielded an abundance fitness of -0.206 ± 0.08.
With N68L the abundance fitness was 0.038 ± 0.051.
In the case of R20E, the abundance fitness is reported as -0.845 ± 0.19.
In the case of R19L, the abundance fitness is reported as -0.613 ± 0.13.
Variant E72L has an abundance fitness of -0.024 ± 0.044.
With N59W the abundance fitness was -0.223 ± 0.055.
In the case of S56I, the abundance fitness is reported as -0.717 ± 0.48.
Variant E1Y has an abundance fitness of 0.05 ± 0.21.
Variant L34S has an abundance fitness of -0.859 ± 0.2.
Variant M60S has an abundance fitness of -0.448 ± 0.1.
N59C gave an abundance fitness of -0.198 ± 0.088.
S78F gave an abundance fitness of -0.199 ± 0.17.
Work on Y38M yielded an abundance fitness of -0.486 ± 0.1.
With E72G the abundance fitness was -0.368 ± 0.052.
Work on R20D yielded an abundance fitness of -0.645 ± 0.46.
For S43D, the abundance fitness was 0.17 ± 0.066.
For Q54I, the abundance fitness was -0.316 ± 0.14.
In the case of S78L, the abundance fitness is reported as 0.091 ± 0.11.
For A13E, the abundance fitness was -0.416 ± 0.14.
With F42I the abundance fitness was 0.231 ± 0.096.
R19W gave an abundance fitness of -0.484 ± 0.12.
In the case of Q15M, the abundance fitness is reported as 0.124 ± 0.075.
In the case of L32Y, the abundance fitness is reported as -0.148 ± 0.19.
With G31H the abundance fitness was -0.228 ± 0.4.
For E10P, the abundance fitness was -0.432 ± 0.15.
In the case of L66Q, the abundance fitness is reported as -0.4 ± 0.12.
K62N gave an abundance fitness of 0.06 ± 0.18.
Work on D7H yielded an abundance fitness of -0.361 ± 0.37.
D29W gave an abundance fitness of -0.631 ± 0.12.
With S76K the abundance fitness was 0.12 ± 0.085.
In the case of S76P, the abundance fitness is reported as 0.099 ± 0.079.
S6P gave an abundance fitness of 0.162 ± 0.11.
For F12A, the abundance fitness was -0.391 ± 0.12.
G24R showed an abundance fitness of -0.75 ± 0.1.
Variant C48F has an abundance fitness of 0.068 ± 0.1.
For L32D, the abundance fitness was 0.182 ± 0.11.
Variant R20L has an abundance fitness of -0.637 ± 0.11.
In the case of L67T, the abundance fitness is reported as -0.711 ± 0.16.
C48T gave an abundance fitness of -0.086 ± 0.074.
For L71W, the abundance fitness was -0.584 ± 0.098.
For D7S, the abundance fitness was -0.477 ± 0.13.
Work on L37H yielded an abundance fitness of 0.133 ± 0.36.
L55Q gave an abundance fitness of -0.645 ± 0.16.
Work on Q11M yielded an abundance fitness of -0.213 ± 0.095.
For Q18D, the abundance fitness was -0.259 ± 0.31.
Variant L37Q has an abundance fitness of -0.054 ± 0.084.
In the case of L23R, the abundance fitness is reported as -0.313 ± 0.068.
For K64D, the abundance fitness was -0.653 ± 0.22.
With A13I the abundance fitness was -0.43 ± 0.14.
N40S showed an abundance fitness of 0.004 ± 0.05.
G39W showed an abundance fitness of -0.421 ± 0.098.
Variant K17A has an abundance fitness of -0.178 ± 0.067.
With T26I the abundance fitness was -0.951 ± 0.41.
With F50C the abundance fitness was -0.943 ± 0.26.
Variant F57R has an abundance fitness of -0.012 ± 0.046.
In the case of N59I, the abundance fitness is reported as -0.197 ± 0.23.
Work on T36E yielded an abundance fitness of 0.158 ± 0.063.
Work on K69M yielded an abundance fitness of -0.144 ± 0.066.
Q44N showed an abundance fitness of 0.01 ± 0.084.
Variant L53V has an abundance fitness of -0.055 ± 0.05.
Work on N59V yielded an abundance fitness of -0.031 ± 0.047.
In the case of L53Y, the abundance fitness is reported as -0.112 ± 0.2.
In the case of T45L, the abundance fitness is reported as -0.102 ± 0.055.
C61H gave an abundance fitness of -0.357 ± 0.16.
With G39M the abundance fitness was -1.04 ± 0.35.
For K62C, the abundance fitness was -0.224 ± 0.093.
Work on S76H yielded an abundance fitness of -0.196 ± 0.18.
L9D showed an abundance fitness of -0.678 ± 0.29.
Work on F16E yielded an abundance fitness of -0.585 ± 0.19.
Variant L63W has an abundance fitness of -0.605 ± 0.092.
In the case of A13V, the abundance fitness is reported as -0.047 ± 0.063.
With A3P the abundance fitness was 0.051 ± 0.087.
For F12C, the abundance fitness was -0.881 ± 0.39.
For D75P, the abundance fitness was 0.178 ± 0.15.
E72P showed an abundance fitness of -0.736 ± 0.14.
For N40G, the abundance fitness was 0.008 ± 0.038.
S78Q showed an abundance fitness of -0.158 ± 0.17.
G35M showed an abundance fitness of -0.4 ± 0.12.
Q54N gave an abundance fitness of -0.187 ± 0.096.
In the case of N40Q, the abundance fitness is reported as 0.103 ± 0.061.

Variants of: B2
Test: as above
Conditions: Homo sapiens
With K1A the abundance fitness was -0.32 ± 0.11.
Variant K1C has an abundance fitness of -0.276 ± 0.076.
K1D gave an abundance fitness of -0.01 ± 0.066.
K1E gave an abundance fitness of 0.038 ± 0.063.
For K1F, the abundance fitness was -0.292 ± 0.11.
K1G gave an abundance fitness of -0.218 ± 0.053.
Work on K1H yielded an abundance fitness of -0.599 ± 0.23.
K1I gave an abundance fitness of -0.215 ± 0.21.
In the case of K1L, the abundance fitness is reported as -0.417 ± 0.074.
Variant K1M has an abundance fitness of -0.184 ± 0.084.
K1N showed an abundance fitness of 0.143 ± 0.078.
With K1Q the abundance fitness was -0.248 ± 0.09.
K1R gave an abundance fitness of -0.216 ± 0.052.
Variant K1T has an abundance fitness of -0.036 ± 0.078.
K1V gave an abundance fitness of -0.509 ± 0.087.
Work on K1W yielded an abundance fitness of -0.985 ± 0.17.
Variant K1Y has an abundance fitness of -0.236 ± 0.088.
R2A showed an abundance fitness of -0.096 ± 0.06.
Variant R2C has an abundance fitness of -0.229 ± 0.092.
Variant R2D has an abundance fitness of 0.001 ± 0.14.
R2E gave an abundance fitness of 0.067 ± 0.083.
For R2G, the abundance fitness was -0.077 ± 0.073.
With R2H the abundance fitness was -0.319 ± 0.088.
With R2I the abundance fitness was 0.048 ± 0.065.
With R2K the abundance fitness was 0.101 ± 0.058.
Variant R2L has an abundance fitness of -0.363 ± 0.053.
R2M showed an abundance fitness of -0.012 ± 0.051.
R2P showed an abundance fitness of 0.015 ± 0.068.
Variant R2Q has an abundance fitness of -0.028 ± 0.071.
Work on R2T yielded an abundance fitness of -0.115 ± 0.049.
Work on R2V yielded an abundance fitness of -0.187 ± 0.057.
R2Y gave an abundance fitness of -0.513 ± 0.095.
For V3A, the abundance fitness was 0.059 ± 0.055.
In the case of V3C, the abundance fitness is reported as -0.945 ± 0.13.
Work on V3D yielded an abundance fitness of 0.107 ± 0.071.
V3E gave an abundance fitness of 0.084 ± 0.043.
Variant V3F has an abundance fitness of -0.197 ± 0.08.
V3G showed an abundance fitness of -0.1 ± 0.033.
With V3H the abundance fitness was -0.039 ± 0.079.
V3I gave an abundance fitness of -0.041 ± 0.052.
Work on V3K yielded an abundance fitness of 0.112 ± 0.063.
V3L gave an abundance fitness of -0.156 ± 0.043.
V3M gave an abundance fitness of -0.091 ± 0.077.
Work on V3N yielded an abundance fitness of -0.207 ± 0.096.
With V3P the abundance fitness was -0.028 ± 0.056.
With V3Q the abundance fitness was 0.11 ± 0.056.
